Test results published in patent publication US20210388087A1 (Chugai, published 2021).
Numbering of substitutions follows the chain as printed. Numbers in names are those of the source. One block for each binder: values may come before it.

Molecular target: T1, Human CD3eg linker (human)
T1 construct: single-chain construct; also called recombinant human CD3
T1 chain: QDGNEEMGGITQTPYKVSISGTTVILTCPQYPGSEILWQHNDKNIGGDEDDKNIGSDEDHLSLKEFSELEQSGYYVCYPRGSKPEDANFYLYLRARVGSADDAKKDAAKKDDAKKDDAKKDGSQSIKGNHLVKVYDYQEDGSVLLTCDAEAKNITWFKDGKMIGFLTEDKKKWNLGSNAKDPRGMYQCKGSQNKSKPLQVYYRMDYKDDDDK
Test: SPR, vs unmutated H183/L072

B1: dBBDu183H A102F/dBBDu072L (antibody, name in Kabat numbering, V domains shown)
VH: QVQLVESGGGLVQPGRSLRLSCAASGFTFSNAWMHWVRQAPGKGLEWVAQIKDKGNAYAAYYAPSVKGRFTISRDDSKNSIYLQMNSLKTEDTAVYYCHYVHYASASTVLPAFGVDFWGQGTTVTVSS
VL: DIVMTQSPLSLPVTPGEPASISCQASQELVHMNRNTYLHWYQQKPGQAPRLLIYKVSNRFPGVPDRFSGSGSGTDFTLKISRVEAEDVGVYYCAQGTSVPFTFGQGTKLEIK
- fold change of affinity: 2 fold

B2: dBBDu183H D101E/dBBDu072L (antibody, name in Kabat numbering, V domains shown)
VH: B1 VH with D116E, F117A
VL: B1 VL
- fold change of affinity: 0 fold

B3: dBBDu183H D101K/dBBDu072L (antibody, name in Kabat numbering, V domains shown)
VH: B1 VH with D116K, F117A
VL: B1 VL
- fold change of affinity: 0 fold

B4: dBBDu183H A102V/dBBDu072L (antibody, name in Kabat numbering, V domains shown)
VH: B1 VH with F117V
VL: B1 VL
- fold change of affinity: 1 fold

B6: dBBDu183H A102Y/dBBDu072L (antibody, name in Kabat numbering, V domains shown)
VH: B1 VH with F117Y
VL: B1 VL
- fold change of affinity: 2.5 fold

B7: dBBDu183H D101Q/dBBDu072L (antibody, name in Kabat numbering, V domains shown)
VH: B1 VH with D116Q, F117A
VL: B1 VL
- fold change of affinity: 0 fold

B10: dBBDu183H A102N/dBBDu072L (antibody, name in Kabat numbering, V domains shown)
VH: B1 VH with F117N
VL: B1 VL
- fold change of affinity: 1.5 fold

B13: dBBDu183H A102Q/dBBDu072L (antibody, name in Kabat numbering, V domains shown)
VH: B1 VH with F117Q
VL: B1 VL
- fold change of affinity: 1.3 fold

B14: dBBDu183H D101H/dBBDu072L (antibody, name in Kabat numbering, V domains shown)
VH: B1 VH with D116H, F117A
VL: B1 VL
- fold change of affinity: 0.4 fold

B15: dBBDu183H A102T/dBBDu072L (antibody, name in Kabat numbering, V domains shown)
VH: B1 VH with F117T
VL: B1 VL
- fold change of affinity: 0.5 fold

B16: dBBDu183H A102G/dBBDu072L (antibody, name in Kabat numbering, V domains shown)
VH: B1 VH with F117G
VL: B1 VL
- fold change of affinity: 1 fold

B17: dBBDu183H A102R/dBBDu072L (antibody, name in Kabat numbering, V domains shown)
VH: B1 VH with F117R
VL: B1 VL
- fold change of affinity: 1 fold

B18: dBBDu183H A102H/dBBDu072L (antibody, name in Kabat numbering, V domains shown)
VH: B1 VH with F117H
VL: B1 VL
- fold change of affinity: 3.6 fold

B19: dBBDu183H F100gD/dBBDu072L (antibody, name in Kabat numbering, V domains shown)
VH: B1 VH with F113D, F117A
VL: B1 VL
- fold change of affinity: 0.3 fold

B20: dBBDu183H D101N/dBBDu072L (antibody, name in Kabat numbering, V domains shown)
VH: B1 VH with D116N, F117A
VL: B1 VL
- fold change of affinity: 1.1 fold

B23: dBBDu183H A102K/dBBDu072L (antibody, name in Kabat numbering, V domains shown)
VH: B1 VH with F117K
VL: B1 VL
- fold change of affinity: 1.5 fold

B24: dBBDu183H D101V/dBBDu072L (antibody, name in Kabat numbering, V domains shown)
VH: B1 VH with D116V, F117A
VL: B1 VL
- fold change of affinity: 0.5 fold

B26: dBBDu183H D101R/dBBDu072L (antibody, name in Kabat numbering, V domains shown)
VH: B1 VH with D116R, F117A
VL: B1 VL
- fold change of affinity: 0 fold

B29: dBBDu183H D101S/dBBDu072L (antibody, name in Kabat numbering, V domains shown)
VH: B1 VH with D116S, F117A
VL: B1 VL
- fold change of affinity: 0.6 fold

B31: dBBDu183H D101F/dBBDu072L (antibody, name in Kabat numbering, V domains shown)
VH: B1 VH with D116F, F117A
VL: B1 VL
- fold change of affinity: 2.5 fold

B33: dBBDu183H A102S/dBBDu072L (antibody, name in Kabat numbering, V domains shown)
VH: B1 VH with F117S
VL: B1 VL
- fold change of affinity: 1.9 fold

B34: dBBDu183H D101G/dBBDu072L (antibody, name in Kabat numbering, V domains shown)
VH: B1 VH with D116G, F117A
VL: B1 VL
- fold change of affinity: 0.4 fold

B37: dBBDu183H D101Y/dBBDu072L (antibody, name in Kabat numbering, V domains shown)
VH: B1 VH with D116Y, F117A
VL: B1 VL
- fold change of affinity: 0 fold

B38: dBBDu183H A102W/dBBDu072L (antibody, name in Kabat numbering, V domains shown)
VH: B1 VH with F117W
VL: B1 VL
- fold change of affinity: 3.3 fold

B44: dBBDu183H D101T/dBBDu072L (antibody, name in Kabat numbering, V domains shown)
VH: B1 VH with D116T, F117A
VL: B1 VL
- fold change of affinity: 0.2 fold

B45: dBBDu183H D101W/dBBDu072L (antibody, name in Kabat numbering, V domains shown)
VH: B1 VH with D116W, F117A
VL: B1 VL
- fold change of affinity: 0 fold

More lines, now with the values ahead:

- fold change of affinity: 1 fold
B5: dBBDu183H G65E/dBBDu072L (antibody, name in Kabat numbering, V domains shown)
VH: B1 VH with G68E, F117A
VL: B1 VL

- fold change of affinity: 1 fold
B8: dBBDu183H G65D/dBBDu072L (antibody, name in Kabat numbering, V domains shown)
VH: B1 VH with G68D, F117A
VL: B1 VL

- fold change of affinity: 1.7 fold
B9: dBBDu183H F100gK/dBBDu072L (antibody, name in Kabat numbering, V domains shown)
VH: B1 VH with F113K, F117A
VL: B1 VL

- fold change of affinity: 0.9 fold
B11: dBBDu183H G65N/dBBDu072L (antibody, name in Kabat numbering, V domains shown)
VH: B1 VH with G68N, F117A
VL: B1 VL

- fold change of affinity: 1.2 fold
B12: dBBDu183H F100gV/dBBDu072L (antibody, name in Kabat numbering, V domains shown)
VH: B1 VH with F113V, F117A
VL: B1 VL

- fold change of affinity: 0.9 fold
B21: dBBDu183H F100gW/dBBDu072L (antibody, name in Kabat numbering, V domains shown)
VH: B1 VH with F113W, F117A
VL: B1 VL

- fold change of affinity: 1.2 fold
B22: dBBDu183H F100gY/dBBDu072L (antibody, name in Kabat numbering, V domains shown)
VH: B1 VH with F113Y, F117A
VL: B1 VL

- fold change of affinity: 1.8 fold
B25: dBBDu183H F100gH/dBBDu072L (antibody, name in Kabat numbering, V domains shown)
VH: B1 VH with F113H, F117A
VL: B1 VL

- fold change of affinity: 0.9 fold
B27: dBBDu183H F100gN/dBBDu072L (antibody, name in Kabat numbering, V domains shown)
VH: B1 VH with F113N, F117A
VL: B1 VL

- fold change of affinity: 1.1 fold
B28: dBBDu183H G65K/dBBDu072L (antibody, name in Kabat numbering, V domains shown)
VH: B1 VH with G68K, F117A
VL: B1 VL

- fold change of affinity: 3.4 fold
B30: dBBDu183H F100gR/dBBDu072L (antibody, name in Kabat numbering, V domains shown)
VH: B1 VH with F113R, F117A
VL: B1 VL

- fold change of affinity: 0.9 fold
B32: dBBDu183H G65H/dBBDu072L (antibody, name in Kabat numbering, V domains shown)
VH: B1 VH with G68H, F117A
VL: B1 VL

- fold change of affinity: 1.2 fold
B35: dBBDu183H F100gG/dBBDu072L (antibody, name in Kabat numbering, V domains shown)
VH: B1 VH with F113G, F117A
VL: B1 VL

- fold change of affinity: 1.3 fold
B36: dBBDu183H F100gT/dBBDu072L (antibody, name in Kabat numbering, V domains shown)
VH: B1 VH with F113T, F117A
VL: B1 VL

- fold change of affinity: 1.4 fold
B39: dBBDu183H F100gS/dBBDu072L (antibody, name in Kabat numbering, V domains shown)
VH: B1 VH with F113S, F117A
VL: B1 VL

- fold change of affinity: 1 fold
B40: dBBDu183H G65Q/dBBDu072L (antibody, name in Kabat numbering, V domains shown)
VH: B1 VH with G68Q, F117A
VL: B1 VL

- fold change of affinity: 0.5 fold
B41: dBBDu183H F100gE/dBBDu072L (antibody, name in Kabat numbering, V domains shown)
VH: B1 VH with F113E, F117A
VL: B1 VL

- fold change of affinity: 1.3 fold
B42: dBBDu183H F100gQ/dBBDu072L (antibody, name in Kabat numbering, V domains shown)
VH: B1 VH with F113Q, F117A
VL: B1 VL

- fold change of affinity: 0.9 fold
B43: dBBDu183H G65F/dBBDu072L (antibody, name in Kabat numbering, V domains shown)
VH: B1 VH with G68F, F117A
VL: B1 VL
